Patent US20100129369A1 (Eli Lilly, published 2010)
Substitutions are numbered along the chain they refer to. Numbers in names are those of the source.

B1: D11-C27G3 (antibody, human IgG2, kappa, V domains shown)
VH: QVQLVQSGAEVKKPGSSVKVSCKASGYTFTSRYIHWVRQAPGQGLEWMGWIYPVTGDTYYREPFKGRVTITADKSTSTAYMELSSLRSEDTAVYYCARGYGAFYYWGQGTLVTVSS
VL: EIVLTQSPGTLSLSPGERATLSCSVSSSISSTNLHWYQQKPGQAPRLLIYGTSRLRSGIPDRFSGSGSGTDFTLTISRLEPEDFAVYYCQQWSSYPYSFGQGTKLEIKR
B2: D11-S17Y (antibody, human IgG2, kappa, V domains shown)
VH: B1 VH with R61N, P63K
VL: B1 VL with R54Y, R56A
B3: D11-8B8 (antibody, human IgG2, kappa, V domains shown)
VH: B1 VH with R61I, P63K, Y104F
VL: B1 VL with R54Y, R56A
notes: Human engineered IgG2, kappa; expressed in HEK293 EBNA cells; also called Mab D11-8B8
B4: D11-C27G3 (antibody, human IgG2, kappa, V domains shown)
VH: B1 VH
VL: B1 VL
notes: Human engineered IgG2, kappa; also called D11-27G3

Assays:
human c-Met [1] = biological target: T1, human c-Met (human, UniProt P08581 25-1390); assay: cell-based or functional assay
T1 sequence (P08581 25-1390): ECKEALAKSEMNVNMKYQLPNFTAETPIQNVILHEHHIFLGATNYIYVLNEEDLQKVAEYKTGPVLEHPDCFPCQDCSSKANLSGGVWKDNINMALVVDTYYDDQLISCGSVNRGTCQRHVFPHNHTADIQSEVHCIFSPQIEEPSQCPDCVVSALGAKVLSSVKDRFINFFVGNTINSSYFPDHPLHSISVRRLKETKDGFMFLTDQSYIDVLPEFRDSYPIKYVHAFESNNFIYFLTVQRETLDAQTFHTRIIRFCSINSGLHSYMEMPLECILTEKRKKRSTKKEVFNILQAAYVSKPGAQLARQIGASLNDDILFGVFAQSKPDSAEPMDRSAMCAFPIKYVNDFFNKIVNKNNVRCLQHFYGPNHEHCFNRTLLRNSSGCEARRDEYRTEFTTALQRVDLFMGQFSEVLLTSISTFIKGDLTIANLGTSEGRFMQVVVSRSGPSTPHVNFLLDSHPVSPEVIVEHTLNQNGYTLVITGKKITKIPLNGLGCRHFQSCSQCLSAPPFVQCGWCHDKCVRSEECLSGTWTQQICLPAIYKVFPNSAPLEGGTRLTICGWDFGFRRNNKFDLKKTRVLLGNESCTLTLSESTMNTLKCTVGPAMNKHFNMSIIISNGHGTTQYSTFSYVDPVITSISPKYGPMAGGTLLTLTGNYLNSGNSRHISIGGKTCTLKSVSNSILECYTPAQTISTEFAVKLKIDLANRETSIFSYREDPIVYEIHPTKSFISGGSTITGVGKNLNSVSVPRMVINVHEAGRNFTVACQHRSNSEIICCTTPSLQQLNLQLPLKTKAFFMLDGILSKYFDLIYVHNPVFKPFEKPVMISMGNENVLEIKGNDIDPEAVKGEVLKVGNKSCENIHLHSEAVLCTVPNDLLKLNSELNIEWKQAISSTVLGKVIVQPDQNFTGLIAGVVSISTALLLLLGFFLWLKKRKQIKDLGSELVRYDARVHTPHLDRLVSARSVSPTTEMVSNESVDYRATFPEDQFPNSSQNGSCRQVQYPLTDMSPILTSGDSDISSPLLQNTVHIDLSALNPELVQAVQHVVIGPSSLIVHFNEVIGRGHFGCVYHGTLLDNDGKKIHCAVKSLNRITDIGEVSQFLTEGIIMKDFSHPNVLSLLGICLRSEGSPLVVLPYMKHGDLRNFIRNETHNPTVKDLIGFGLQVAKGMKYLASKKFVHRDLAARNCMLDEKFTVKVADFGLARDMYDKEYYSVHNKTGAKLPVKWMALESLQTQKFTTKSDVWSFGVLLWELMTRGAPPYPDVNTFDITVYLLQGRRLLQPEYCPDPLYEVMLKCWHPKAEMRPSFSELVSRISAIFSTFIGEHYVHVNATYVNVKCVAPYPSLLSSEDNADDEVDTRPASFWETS

human c-Met [2] = biological target: T1, human c-Met; assay: cell-based or functional assay; remark: listed apart in the source
Human c-Met-Flis-Fc ECD [3] = biological target: T2, Human c-Met-Flis-Fc ECD (human); assay: ELISA, coated ECD-Fc, antibody 0.000 ng/mL
T2 construct: also called human c-Met extracellular domain (ECD)-Fc-Flis fusion; Human cMet-ECD-Fc-Flis
T2 sequence (chain, as listed by the source limits assumed): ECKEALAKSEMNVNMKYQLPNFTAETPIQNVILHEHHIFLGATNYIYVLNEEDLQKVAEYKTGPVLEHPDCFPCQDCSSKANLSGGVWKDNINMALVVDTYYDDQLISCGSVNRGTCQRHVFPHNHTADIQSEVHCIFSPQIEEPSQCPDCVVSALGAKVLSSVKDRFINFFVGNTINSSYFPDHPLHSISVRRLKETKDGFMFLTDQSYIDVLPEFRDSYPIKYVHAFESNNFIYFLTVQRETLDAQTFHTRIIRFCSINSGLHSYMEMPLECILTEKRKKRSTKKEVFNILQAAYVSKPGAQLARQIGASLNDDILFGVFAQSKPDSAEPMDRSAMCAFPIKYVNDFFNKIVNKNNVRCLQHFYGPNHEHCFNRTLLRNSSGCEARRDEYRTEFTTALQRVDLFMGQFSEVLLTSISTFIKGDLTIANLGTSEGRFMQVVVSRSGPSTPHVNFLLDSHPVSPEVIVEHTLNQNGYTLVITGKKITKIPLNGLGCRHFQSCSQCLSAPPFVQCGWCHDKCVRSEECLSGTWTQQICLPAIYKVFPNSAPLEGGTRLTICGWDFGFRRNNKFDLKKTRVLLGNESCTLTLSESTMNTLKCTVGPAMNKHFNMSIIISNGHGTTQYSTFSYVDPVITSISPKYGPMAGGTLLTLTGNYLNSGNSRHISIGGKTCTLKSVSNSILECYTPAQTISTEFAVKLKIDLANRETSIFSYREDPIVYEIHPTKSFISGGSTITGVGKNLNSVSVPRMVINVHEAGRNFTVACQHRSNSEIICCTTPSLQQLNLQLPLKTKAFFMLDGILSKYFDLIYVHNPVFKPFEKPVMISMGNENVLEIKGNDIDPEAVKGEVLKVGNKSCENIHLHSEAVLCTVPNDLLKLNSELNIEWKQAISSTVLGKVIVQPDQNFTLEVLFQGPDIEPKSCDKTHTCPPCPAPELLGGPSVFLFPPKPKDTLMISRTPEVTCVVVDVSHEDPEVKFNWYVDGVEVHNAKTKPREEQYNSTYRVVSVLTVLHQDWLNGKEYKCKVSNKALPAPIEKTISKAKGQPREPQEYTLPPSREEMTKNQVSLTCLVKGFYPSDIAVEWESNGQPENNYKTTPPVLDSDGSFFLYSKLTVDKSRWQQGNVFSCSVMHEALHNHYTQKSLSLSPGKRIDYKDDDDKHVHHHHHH
Description: (§1) Wells of 96-well EIA/RIA high binding plates (Costar, #2592) are coated with 100 μL of 1 μg/mL human c-Met extracellular domain (ECD)-Fc-Flis fusion (SEQ ID NO:72), RON-ECD-Fc (R&D Systems, #1947-MS), or PlexinA2-ECD-Fc (Abnova, Taipei, Taiwan #H00005362-P01) in coating buffer (BioFX Labs, # COAT-1000-01) overnight at 4° C. […] After the plates are washed, 100 μL/well of substrate solution (BioFx, #TMBW-1000-01) are added and the plates are incubated for 10 min. at room temperature. 100 μL/well of stop solution (BioFx, # LSTP-1000-01) are added to stop the reaction. The colorimetric signals are developed and read at 450 nm using a SpectraMax 190 plate reader (Molecular Devices, Sunnyvale, Calif.). c-Met antibody binding to c-Met, RON and PlexinA2 ECDs is proportional to color signal production.

Human c-Met-Flis-Fc ECD [4] = biological target: T2, Human c-Met-Flis-Fc ECD; assay: ELISA, coated ECD-Fc, antibody 0.002 ng/mL
Description: as §1

Human c-Met-Flis-Fc ECD [5] = biological target: T2, Human c-Met-Flis-Fc ECD; assay: ELISA, coated ECD-Fc, antibody 0.010 ng/mL
Description: as §1

Human c-Met-Flis-Fc ECD [6] = biological target: T2, Human c-Met-Flis-Fc ECD; assay: ELISA, coated ECD-Fc, antibody 0.060 ng/mL
Description: as §1

Human c-Met-Flis-Fc ECD [7] = biological target: T2, Human c-Met-Flis-Fc ECD; assay: ELISA, coated ECD-Fc, antibody 0.357 ng/mL
Description: as §1

Human c-Met-Flis-Fc ECD [8] = biological target: T2, Human c-Met-Flis-Fc ECD; assay: ELISA, coated ECD-Fc, antibody 2.143 ng/mL
Description: as §1

Human c-Met-Flis-Fc ECD [9] = biological target: T2, Human c-Met-Flis-Fc ECD; assay: ELISA, coated ECD-Fc, antibody 12.860 ng/mL
Description: as §1

Human c-Met-Flis-Fc ECD [10] = biological target: T2, Human c-Met-Flis-Fc ECD; assay: ELISA, coated ECD-Fc, antibody 77.160 ng/mL
Description: as §1

Human c-Met-Flis-Fc ECD [11] = biological target: T2, Human c-Met-Flis-Fc ECD; assay: ELISA, coated ECD-Fc, antibody 462.963 ng/mL
Description: as §1

Human c-Met-Flis-Fc ECD [12] = biological target: T2, Human c-Met-Flis-Fc ECD; assay: ELISA, coated ECD-Fc, antibody 2777.778 ng/mL
Description: as §1

Human c-Met-Flis-Fc ECD [13] = biological target: T2, Human c-Met-Flis-Fc ECD; assay: ELISA, coated ECD-Fc, antibody 16666.667 ng/mL
Description: as §1

Human c-Met-Flis-Fc ECD [14] = biological target: T2, Human c-Met-Flis-Fc ECD; assay: ELISA, coated ECD-Fc, antibody 100000.000 ng/mL
Description: as §1

Human c-Met-Flis-Fc ECD [15] = biological target: T2, Human c-Met-Flis-Fc ECD; assay: SPR Biacore, antibody captured, ECD-Fc analyte, 1:1 model
Description: (§2) A Biacore® 2000 instrument is used to measure the binding kinetics of c-Met antibodies to human, cynomolgus monkey, and rat c-Met ECDs. Measurements are performed at 25° C. Samples are dissolved in HBS-EP buffer (150 mM sodium chloride, 3 mM EDTA, 0.005% (w/v) surfactant P-20, and 10 mM N-2-hydroxyethylpiperazine-N′-2-ethanesulfonic acid (HEPES) at pH 7.4; #BR-1001-88).
(§3) Binding is evaluated using multiple cycles. Each cycle is performed at a flow rate of 50 μL/min., and consists of the following steps: injection of about 10 μL of a c-Met antibody at 10 μg/mL aiming at a capture of 40-100 RUs, injection of 250 μL of human, cynomolgus, or rat c-Met-Flis-Fc ECD (starting at 100 nM and using two-fold serial dilutions for each cycle) followed by 20 min. for dissociation, and regeneration using about 30 μL of 10 mM glycine hydrochloride, pH 1.5. Association and dissociation rates for each cycle are evaluated using a “1:1 (Langmuir) binding” model in the BIAevaluation software, version 4.1.

[16] = biological target: T3, Cynomolgus Monkey c-Met-Flis-Fc ECD (cynomolgus monkey); assay: as above
T3 construct: also called Cynomolgus Monkey cMet-ECD-Fc-Flis; cynomolgus monkey c-Met ECD
T3 sequence (chain, as listed by the source limits assumed): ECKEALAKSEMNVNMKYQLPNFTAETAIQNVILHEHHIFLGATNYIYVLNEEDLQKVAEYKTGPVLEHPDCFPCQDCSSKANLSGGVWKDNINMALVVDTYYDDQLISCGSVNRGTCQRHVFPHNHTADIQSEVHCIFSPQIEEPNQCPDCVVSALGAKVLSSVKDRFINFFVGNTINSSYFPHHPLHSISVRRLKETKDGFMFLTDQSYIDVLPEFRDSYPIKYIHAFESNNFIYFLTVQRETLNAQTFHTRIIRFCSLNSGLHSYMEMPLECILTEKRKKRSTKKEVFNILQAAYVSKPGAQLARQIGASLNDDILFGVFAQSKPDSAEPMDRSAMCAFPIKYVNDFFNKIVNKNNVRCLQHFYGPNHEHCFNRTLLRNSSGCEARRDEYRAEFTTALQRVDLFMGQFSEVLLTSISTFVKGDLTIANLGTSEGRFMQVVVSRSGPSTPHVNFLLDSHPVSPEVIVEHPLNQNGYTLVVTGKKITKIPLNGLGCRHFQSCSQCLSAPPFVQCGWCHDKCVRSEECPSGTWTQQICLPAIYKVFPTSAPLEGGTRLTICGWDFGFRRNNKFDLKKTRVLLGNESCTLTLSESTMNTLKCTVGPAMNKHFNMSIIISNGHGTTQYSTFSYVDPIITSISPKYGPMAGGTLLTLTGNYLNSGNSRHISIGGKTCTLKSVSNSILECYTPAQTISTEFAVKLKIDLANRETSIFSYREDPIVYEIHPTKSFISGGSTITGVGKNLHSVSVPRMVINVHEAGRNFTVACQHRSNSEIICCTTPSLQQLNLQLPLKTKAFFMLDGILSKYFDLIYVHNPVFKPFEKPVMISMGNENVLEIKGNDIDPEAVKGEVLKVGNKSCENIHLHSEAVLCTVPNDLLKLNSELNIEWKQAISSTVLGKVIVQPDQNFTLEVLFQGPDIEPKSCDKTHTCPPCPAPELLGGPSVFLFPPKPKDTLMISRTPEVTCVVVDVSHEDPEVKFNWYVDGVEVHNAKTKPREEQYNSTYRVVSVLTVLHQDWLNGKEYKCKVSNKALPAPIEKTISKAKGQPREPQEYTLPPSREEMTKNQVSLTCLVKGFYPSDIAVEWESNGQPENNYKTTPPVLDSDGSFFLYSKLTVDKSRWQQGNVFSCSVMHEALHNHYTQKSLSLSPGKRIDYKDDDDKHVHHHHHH
Description: as §2, §3

Rat c-Met-Flis-Fc ECD = biological target: T4, Rat c-Met-Flis-Fc ECD (rat); assay: as above
T4 construct: also called Rat cMet-ECD-Fc-Flis; rat c-Met ECD
T4 sequence (chain, as listed by the source limits assumed): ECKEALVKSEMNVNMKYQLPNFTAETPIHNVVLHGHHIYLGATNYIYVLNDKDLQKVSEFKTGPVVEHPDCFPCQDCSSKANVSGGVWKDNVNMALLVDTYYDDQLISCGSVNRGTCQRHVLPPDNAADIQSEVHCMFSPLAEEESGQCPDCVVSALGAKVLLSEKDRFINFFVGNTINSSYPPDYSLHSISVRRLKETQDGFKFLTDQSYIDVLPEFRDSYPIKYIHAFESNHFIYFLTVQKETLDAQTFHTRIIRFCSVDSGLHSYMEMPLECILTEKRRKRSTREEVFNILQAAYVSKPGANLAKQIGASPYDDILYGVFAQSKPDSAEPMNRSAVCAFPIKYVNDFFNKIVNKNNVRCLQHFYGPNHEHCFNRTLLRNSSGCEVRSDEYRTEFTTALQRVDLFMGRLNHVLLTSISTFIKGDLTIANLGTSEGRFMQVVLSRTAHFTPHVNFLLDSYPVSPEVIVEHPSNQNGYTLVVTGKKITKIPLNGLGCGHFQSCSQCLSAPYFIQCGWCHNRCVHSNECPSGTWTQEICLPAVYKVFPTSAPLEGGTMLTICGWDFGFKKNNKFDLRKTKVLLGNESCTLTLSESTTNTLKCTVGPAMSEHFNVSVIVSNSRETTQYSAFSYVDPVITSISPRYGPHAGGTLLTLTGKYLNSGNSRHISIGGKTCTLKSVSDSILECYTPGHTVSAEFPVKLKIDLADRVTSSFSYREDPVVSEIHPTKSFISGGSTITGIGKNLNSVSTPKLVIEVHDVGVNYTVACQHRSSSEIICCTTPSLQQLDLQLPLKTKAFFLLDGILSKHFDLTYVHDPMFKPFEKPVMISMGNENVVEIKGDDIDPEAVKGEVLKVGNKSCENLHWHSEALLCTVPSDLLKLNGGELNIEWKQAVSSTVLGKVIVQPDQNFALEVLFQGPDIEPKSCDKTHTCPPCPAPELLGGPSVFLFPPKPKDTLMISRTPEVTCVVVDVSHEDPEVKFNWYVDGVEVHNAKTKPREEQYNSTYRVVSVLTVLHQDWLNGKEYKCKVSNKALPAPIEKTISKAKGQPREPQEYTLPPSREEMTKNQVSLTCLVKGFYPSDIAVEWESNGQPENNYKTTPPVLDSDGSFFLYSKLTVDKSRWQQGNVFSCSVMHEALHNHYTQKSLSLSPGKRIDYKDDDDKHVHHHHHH
Description: as §2, §3

| Binder | 3H-Thymidine Incorporation in Caki-1 Cells in the Absence of HGF (AVG CPM), antibody dose 0.1 ng/mL (human c-Met [1]) [CPM] | 3H-Thymidine Incorporation in Caki-1 Cells in the Absence of HGF (AVG CPM), antibody dose 0.4 ng/mL (human c-Met [1]) [CPM] | 3H-Thymidine Incorporation in Caki-1 Cells in the Absence of HGF (AVG CPM), antibody dose 2.6 ng/mL (human c-Met [1]) [CPM] | 3H-Thymidine Incorporation in Caki-1 Cells in the Absence of HGF (AVG CPM), antibody dose 15.4 ng/mL (human c-Met [1]) [CPM] | 3H-Thymidine Incorporation in Caki-1 Cells in the Absence of HGF (AVG CPM), antibody dose 92.6 ng/mL (human c-Met [1]) [CPM] | 3H-Thymidine Incorporation in Caki-1 Cells in the Absence of HGF (AVG CPM), antibody dose 555.6 ng/mL (human c-Met [1]) [CPM] | 3H-Thymidine Incorporation in Caki-1 Cells in the Absence of HGF (AVG CPM), antibody dose 3333.3 ng/mL (human c-Met [1]) [CPM] | 3H-Thymidine Incorporation in Caki-1 Cells in the Absence of HGF (AVG CPM), antibody dose 20000.0 ng/mL (human c-Met [1]) [CPM] | 3H-Thymidine Incorporation in Primary Human Hepatocytes in the Absence of HGF (average), dose 0.0032 ug/mL (human c-Met [2]) | 3H-Thymidine Incorporation in Primary Human Hepatocytes in the Absence of HGF (average), dose 0.016 ug/mL (human c-Met [2]) | 3H-Thymidine Incorporation in Primary Human Hepatocytes in the Absence of HGF (average), dose 0.08 ug/mL (human c-Met [2]) | 3H-Thymidine Incorporation in Primary Human Hepatocytes in the Absence of HGF (average), dose 0.4 ug/mL (human c-Met [2]) | 3H-Thymidine Incorporation in Primary Human Hepatocytes in the Absence of HGF (average), dose 2 ug/mL (human c-Met [2]) | 3H-Thymidine Incorporation in Primary Human Hepatocytes in the Absence of HGF (average), dose 10 ug/mL (human c-Met [2]) | Average A450 nm (Human c-Met-Flis-Fc ECD [3]) [A450 nm] | Average A450 nm (Human c-Met-Flis-Fc ECD [4]) [A450 nm] | Average A450 nm (Human c-Met-Flis-Fc ECD [5]) [A450 nm] | Average A450 nm (Human c-Met-Flis-Fc ECD [6]) [A450 nm] | Average A450 nm (Human c-Met-Flis-Fc ECD [7]) [A450 nm] | Average A450 nm (Human c-Met-Flis-Fc ECD [8]) [A450 nm] | further results |
| --- | --- | --- | --- | --- | --- | --- | --- | --- | --- | --- | --- | --- | --- | --- | --- | --- | --- | --- | --- | --- | --- |
| B1 | 17700 | 13600 | 13300 | 13800 | 14700 | 14500 | 15800 | 16100 | 693 | 892 | 1280 | 1750 | 1870 | 2150 |  |  |  |  |  |  |  |
| B2 | 15900 | 14600 | 14900 | 14600 | 15300 | 16600 | 17900 | 18600 | 726 | 920 | 1460 | 1910 | 2570 | 3160 |  |  |  |  |  |  |  |
| B3 |  |  |  |  |  |  |  |  |  |  |  |  |  |  | 0.297 | 0.299 | 0.304 | 0.445 | 1.31 | 2.42 | Average A450 nm (Human c-Met-Flis-Fc ECD [9]): 3.93 A450 nm; Average A450 nm (Human c-Met-Flis-Fc ECD [10]): 4 A450 nm; Average A450 nm (Human c-Met-Flis-Fc ECD [11]): 4 A450 nm; Average A450 nm (Human c-Met-Flis-Fc ECD [12]): 4 A450 nm; Average A450 nm (Human c-Met-Flis-Fc ECD [13]): 4 A450 nm; Average A450 nm (Human c-Met-Flis-Fc ECD [14]): 4 A450 nm; Kd (Human c-Met-Flis-Fc ECD [15]): 0.5 nM; koff (Human c-Met-Flis-Fc ECD [15]): 5e-05 s⁻¹; kon (Human c-Met-Flis-Fc ECD [15]): 100000 M⁻¹ s⁻¹; Kd [16]: 2.9 nM; koff [16]: 0.000223 s⁻¹; kon [16]: 78000 M⁻¹ s⁻¹; Kd (Rat c-Met-Flis-Fc ECD): 0.89 nM; koff (Rat c-Met-Flis-Fc ECD): 0.00019 s⁻¹; kon (Rat c-Met-Flis-Fc ECD): 210000 M⁻¹ s⁻¹ |
| B4 |  |  |  |  |  |  |  |  |  |  |  |  |  |  | 0.284 | 0.271 | 0.29 | 0.46 | 1.44 | 2.53 | Average A450 nm (Human c-Met-Flis-Fc ECD [9]): 4 A450 nm; Average A450 nm (Human c-Met-Flis-Fc ECD [10]): 4 A450 nm; Average A450 nm (Human c-Met-Flis-Fc ECD [11]): 4 A450 nm; Average A450 nm (Human c-Met-Flis-Fc ECD [12]): 4 A450 nm; Average A450 nm (Human c-Met-Flis-Fc ECD [13]): 4 A450 nm; Average A450 nm (Human c-Met-Flis-Fc ECD [14]): 3.92 A450 nm; Kd (Human c-Met-Flis-Fc ECD [15]): 1.4 nM; koff (Human c-Met-Flis-Fc ECD [15]): 9e-05 s⁻¹; kon (Human c-Met-Flis-Fc ECD [15]): 64000 M⁻¹ s⁻¹; Kd [16]: 6.5 nM; koff [16]: 0.00032 s⁻¹; kon [16]: 50000 M⁻¹ s⁻¹; Kd (Rat c-Met-Flis-Fc ECD): 2.7 nM; koff (Rat c-Met-Flis-Fc ECD): 0.00034 s⁻¹; kon (Rat c-Met-Flis-Fc ECD): 130000 M⁻¹ s⁻¹ |
